# Test results reported in patent US20240239870A1 (published 2024).
# B1: anti-PCSK9 Adnectin 2013E01 (designed binder)
# chain: MGVSDVPRDLEVVAATPTSLLISWVPPSDDYGYYRITYGETGGNSPVQEFTVPIGKGTATISGLKPGVDYTITVYAVEFPWPHAGYYHRPISINYRTEIDKPSQHHHHHH
# notes: also called ATI001081
# B2: ATI001174 [2013E01-non His tagged Cys mut], pegylated (designed binder)
# chain: MGVSDVPRDLEVVAATPTSLLISWVPPSDDYGYYRITYGETGGNSPVQEFTVPIGKGTATISGLKPGVDYTITVYAVEFPWPHAGYYHRPISINYRTEIEKPCQ
# modifications: pegylated via the cysteine of the EIEKPCQ tail (asterisk in Table 5)
# notes: PEGylated, non His tagged cysteine mutant of 2013E01; also called ATI1174
# Experiments:
# [1] = biological target: T1, human PCSK9 (proprotein convertase subtilisin kexin type 9) (human, UniProt Q8NBP7 31-692, biotinylated in the BLI assay (site not stated)); assay: ITC, 37 C
# T1 construct: Immobilized directly (SPR), biotinylated on streptavidin tips (BLI), recombinant from baculovirus (FRET); also called hPCSK9
# [2] = biological target: T1, human PCSK9 (proprotein convertase …); assay: ITC, 37 C, average of 3 experiments
# Description: Solution phase binding was measured in 25 mM HEPES, pH 7.41, 150 mM NaCl at 37° C.
# T1 sequence (Q8NBP7 31-692 limits assumed): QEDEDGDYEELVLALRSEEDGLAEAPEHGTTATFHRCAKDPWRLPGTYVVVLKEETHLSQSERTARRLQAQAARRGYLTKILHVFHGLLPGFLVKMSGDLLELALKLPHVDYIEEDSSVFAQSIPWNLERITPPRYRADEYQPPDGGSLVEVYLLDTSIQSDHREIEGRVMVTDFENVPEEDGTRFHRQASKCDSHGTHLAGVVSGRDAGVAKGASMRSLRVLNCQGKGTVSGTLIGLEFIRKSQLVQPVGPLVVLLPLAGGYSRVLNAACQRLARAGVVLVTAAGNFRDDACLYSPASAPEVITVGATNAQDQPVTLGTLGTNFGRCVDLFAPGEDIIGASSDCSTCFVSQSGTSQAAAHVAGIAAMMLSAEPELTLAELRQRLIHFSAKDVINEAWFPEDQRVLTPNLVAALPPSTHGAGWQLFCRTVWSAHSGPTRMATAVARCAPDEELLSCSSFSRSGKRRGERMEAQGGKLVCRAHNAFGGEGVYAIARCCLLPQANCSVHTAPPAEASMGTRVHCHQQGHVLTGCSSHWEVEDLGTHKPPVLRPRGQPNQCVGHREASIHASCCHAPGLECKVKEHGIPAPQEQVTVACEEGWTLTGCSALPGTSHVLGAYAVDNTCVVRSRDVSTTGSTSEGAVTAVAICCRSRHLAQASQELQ
binder,measurement,setting,value
B1,ΔS,[1],-45.4 cal/mol ° C.
B2,ΔS,[2],-55.8 cal/mol ° C.
